From PMC5650172, “Impact of the structural integrity of the three-way junction of adenovirus VAI RNA on PKR inhibition”

Tests used:
PKR (full length) = PKR (full length) (human, UniProt P19525 1-551); experiment: EMSA; 5 mM Mg2+; Kd only in figure inset; […], room temperature 10 min, […]; SEC: 50 mM Tris pH 7.5, 100 mM NaCl, 5 mM MgCl2; details: protein: recombinant; three-way junction RNA, apical and central stem-loops
PKR1-169 (tandem dsRBMs) = PKR1-169 (tandem dsRBMs) (human, UniProt P19525 1-169); experiment: SEC co-elution, native PAGE; 5 mM Mg2+; 1.1-fold excess RNA; complex also studied by SAXS; […], room temperature 10 min, […]; SEC: 50 mM Tris pH 7.5, 100 mM NaCl, 5 mM MgCl2; details: protein: recombinant; three-way junction RNA, apical and central stem-loops
PKR1-169 (tandem dsRBMs), sequence (P19525 1-169): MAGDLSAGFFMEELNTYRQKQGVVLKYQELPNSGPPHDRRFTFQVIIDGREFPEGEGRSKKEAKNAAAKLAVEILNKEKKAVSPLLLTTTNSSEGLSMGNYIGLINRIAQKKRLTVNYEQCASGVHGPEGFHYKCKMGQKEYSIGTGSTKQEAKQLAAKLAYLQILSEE

PKR (full length), sequence (P19525 whole entry): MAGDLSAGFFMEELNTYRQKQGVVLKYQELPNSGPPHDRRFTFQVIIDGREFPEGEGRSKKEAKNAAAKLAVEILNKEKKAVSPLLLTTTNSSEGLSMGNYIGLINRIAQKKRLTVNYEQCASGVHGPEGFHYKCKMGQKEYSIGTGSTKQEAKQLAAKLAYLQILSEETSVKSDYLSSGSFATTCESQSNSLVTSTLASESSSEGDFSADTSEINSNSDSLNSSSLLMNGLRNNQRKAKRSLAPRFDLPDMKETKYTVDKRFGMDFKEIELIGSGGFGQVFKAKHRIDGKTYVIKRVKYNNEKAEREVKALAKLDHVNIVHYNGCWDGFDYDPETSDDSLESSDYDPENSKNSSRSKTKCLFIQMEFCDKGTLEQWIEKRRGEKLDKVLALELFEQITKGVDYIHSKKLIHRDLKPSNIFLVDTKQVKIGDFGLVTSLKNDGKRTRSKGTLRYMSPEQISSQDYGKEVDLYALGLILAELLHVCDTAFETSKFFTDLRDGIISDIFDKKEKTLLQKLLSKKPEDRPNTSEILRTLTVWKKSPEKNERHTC

B1: VAI dTS (wt RNA) (structured_RNA)
RNA: GGCAAGGGUAUCAUGGCGGACGACCGGGGUUCGAACCCCGGAUCCGGCCGUCCGCCGUGAUCCAUGCGGUUACCGCCCGCGUGUCGAACCCAGGUGUGCC
- binding result (PKR (full length)): binds
- binding result (PKR1-169 (tandem dsRBMs)): binds
